Measurements as given in patent publication US7064106B2, “Gene and use thereof” (Takeda Chemical Industries, Ltd., priority 1999, dated 2006).
Numbering of substitutions follows the chain as printed.

Key:
Type in all cases: cell-based
[1] = molecular target: T1, profilin II (Homo sapiens, UniProt P35080); assay: Yeast two-hybrid HIS3 growth test, MD36 and profilin family; settings: S. cerevisiae Y190; 40 mM 3-amino-1,2,4-triazole
T1 construct: expressed in transfected cells; host or cells: Saccharomyces cerevisiae Y190
T1 sequence (P35080 1-140 isoform P35080-2): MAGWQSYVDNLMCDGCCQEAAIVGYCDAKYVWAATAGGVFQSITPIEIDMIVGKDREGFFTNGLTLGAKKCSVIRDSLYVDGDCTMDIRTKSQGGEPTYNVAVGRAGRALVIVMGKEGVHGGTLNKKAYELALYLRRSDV
Text: (§1) The protein-protein interaction between MD36 and the profilin family was detected by the yeast two-hybrid system. Based on pGBT9 (CLONTECH), expression plasmids were constructed to express the coding regions of profiling I (Evangelista et al., Science, 276, 118–122, 1997; Imamura et al., EMBO J., 16, 2745–2755, 1997; Tanaka, Biochem. Biophys. Res. Commun., 267, 479–481, 2000), profilin II (Schluter et al., Biohim. Biophys. Acta, 1359, 97–109, 1997), and profiling IIL in the form fused to yeast GAL4-DNA-binding domain protein under control of yeast ADH1 promoter. These plasmids were named pG-PFNI, pG-PFNII and pG-PFNIII, respectively (yeast selection marker was TRP1). On the other hand, expression plasmids that express the full-length sequence (SEQ ID NO:1) of MD36, which is IRAP-BP protein, or the coding region from this N-terminus to the sequence (SEQ ID NO:33) including the proline-rich domain in the form fused to yeast […] activated domain protein under control of yeast ADH1 promoter was constructed based on pACT2 (CLONTECH), and named pACT-MD36 and pACT-MD36NT, respectively (yeast selection marker was LEU2). pG-PFNI, pG-PFNII, pG-PFNIII or, pGBT9 for control was co-transfected to yeast Saccharomyces cerevisiae Y190 together with pACT-MD36 or pACT-MD36NT, and yeast strains bearing plasmids from the two were selected on SD medium free of tryptophan and leucine. S. cerevisiae Y190 is originally a histidine auxotrophic strain but when the introduced proteins on the plasmids show the interactions, reporter gene HIS3 is expressed and the strain becomes capable of growing on a histidine-free plate. The yeast strain acquired was spread on tryptophan, leucine and histidine-free SD medium supplemented with 40 mM 3-amino-1,2,4-triazole.

[2] = test system: profilin I; assay: as above; settings: S. cerevisiae Y190; 40 mM 3-amino-1,2,4-triazole
Text: as §1

[3] = molecular target: T2, IRAP (55–82) (Rattus norvegicus, UniProt P97629); assay: Yeast two-hybrid quantification assay of β-galactosidase activity (CPRG); settings: bait IRAP (55–82); prey MD36 cDNA base numbers 2995–3674; S. cerevisiae Y190; CPRG substrate
T2 construct: expressed in transfected cells; host or cells: Saccharomyces cerevisiae Y190
T2 sequence (P97629 55-82 limits assumed): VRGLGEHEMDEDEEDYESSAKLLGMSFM
Procedure: In order to verify the binding of human MD36 to IRAP quantitatively, the β-galactosidase activity was assayed using CPRG (chlorophenol red-β-D-galactopyranoside) as substrate.
Yeast bearing both bait and prey sought to detect the interactions therebetween was subjected to liquid culture. After the cells were recovered, the cell walls were disrupted by freezing/thawing with liquid nitrogen. After CRPG was added to a suspension of the disrupted cells, absorbance of these samples at 578 nm was measured in terms of the β-galactosidase activity. In the unit of β-galactosidase, the enzyme activity that one yeast cell is capable of hydrolyzing 1 μmol of CPRG into chlorophenol red and D-galactoside was made 1 unit. IRAP (55–82) was used as the bait sequence and as the prey sequence, the sequence (679 bp corresponding to the base numbers 2995–3674 in SEQ ID NO:3) directly isolated from human MD36 cDNA sequence by the yeast two-hybrid method was used. In addition, vector pGBT9 that expresses bait sequence-unfused GAL4-BD was used as a negative control. Using plasmids having these sequences, S. Cerevisiae Y190 was transformed and the β-galactosidase activity of the reconstructed yeast transformants was assayed. […] On the other hand, the binding activity was scarcely noted with the protein bearing GAL4-BD alone but no bait sequence (FIG. 19). […]

[4] = molecular target: T3, profilin IIL (Homo sapiens, UniProt P35080); assay: Yeast two-hybrid HIS3 growth test, MD36 and profilin family; settings: S. cerevisiae Y190; 40 mM 3-amino-1,2,4-triazole
T3 construct: expressed in transfected cells; host or cells: Saccharomyces cerevisiae Y190
T3 sequence (P35080 1-140): T1 sequence (P35080 1-140 isoform P35080-2) with A109V, I112F, T123G, E130S, L131M, L133K, R137D, D139G, V140F
Procedure: Using as a template human skeletal muscle-derived cDNA and as an enzyme Pfu polymerase (STRATAGENE), the reaction was carried out at 95° C. for 30 seconds, at 65° C. for 45 seconds and at 72° C. for 60 seconds, for 35 cycles. As a result of PCR, the DNA fragment of 745 bp was found, in addition to the DNA fragment of 423 bp or profilin II, and named profilin IIL. The base sequence for cDNA of profilin IIL is shown by SEQ ID NO:29, and the amino acid sequence of profilin II is shown by SEQ ID NO:28.
The protein-protein interaction between MD36 and the profilin family was detected by the yeast two-hybrid system. Based on pGBT9 (CLONTECH), expression plasmids were constructed to express the coding regions of profiling I (Evangelista et al., Science, 276, 118–122, 1997; Imamura et al., EMBO J., 16, 2745–2755, 1997; Tanaka, Biochem. Biophys. Res. Commun., 267, 479–481, 2000), profilin II (Schluter et al., Biohim. Biophys. Acta, 1359, 97–109, 1997), and profiling IIL in the form fused to yeast GAL4-DNA-binding domain protein under control of yeast ADH1 promoter. These plasmids were named pG-PFNI, pG-PFNII and pG-PFNIII, respectively (yeast selection marker was TRP1). […]

B1: MD36: human skeletal muscle-derived IRAP binding protein, SEQ ID NO:1; C-terminal part (bases 2995–3674) used in binding tests (protein, listed as Homo sapiens)
chain: MAGGEDRGDGEPVSVVTVRVQYLEDTDPFACANFPEPRRAPTCSLDGALPLGAQIPAVHRLLGAPLKLEDCALQVSPSGYYLDTELSLEEQREMLEGFYEEISKGRKPTLILRTQLSVRVNAILEKLYSSSGPELRRSLFSLKQIFQEDKDLVPEFVHSEGLSCLIRVGAAADHNYQSYILRALGQLMLFVDGMLGVVAHSDTIQWLYTLCASLSRLVVKTALKLLLVFVEYSENNAPLFIRAVNSVASTTGAPPWANLVSILEEKNGADPELLVYTVTLINKTLAALPDQDSFYDVTDALEQQGMEALVQRHLGTAGTDVDLRTQLVLYENALKLEDGDIEEAPGAGGRRERRKPSSEEGKRSRRSLEGGGCPARAPEPGPTGPASPVGPTSSTGPALLTGPASSPVGPPSGLQASVNLFPTISVAPSADTSSERSIYKLHQTASVWAPESPPVPQSPPGQARLEARFLENVAAAETEKQVALAQGRAETLAGAMPNEAGGHPDARQLWDSPETAPAARTPQSPAPCVLLRAQRSLAPEPKEPLIPASPKAEPIWELPTRAPRLSIGDLDFSDLGEDEDQDMLNVESVEAGKDIPAPSPPLPLLSGVPPPPPLPPPPPIKGPFPPPPPLPLAAPLPHSVPDSSALPTKRKTVKLFWRELKLAGGHGVSASRFGPCATLWASLDPVSVDTARLEHLFESRAKEVLPSKKAGEGRRTMTTVLDPKRSNAINIGLTTLPPVHVIKAALLNFDEFAVSKDGIEKLLTMMPTEEERQKIEEAQLANPDIPLGPAENFLMTLASIGGLAARLQLWAFKLDYDSMEREIAEPLFDLKVGMEQLVQNATFRCILATLLAVGNFLNGSQSSGFELSYLEKVSEVKDTVRRQSLLHHLCSLVLQTRPESSDLYSEIPALTRCAKVDFEQLTENLGQLERRSRAAEESLRSLAKHELAPALRARLTHFLDQCARRVAMLRIVHRRVCNRFHAFLLYLGYTPQAAREVRIMQFCHTLREFALEYRTCRERVLQQQQKQATYRERNKTRGRMITETEKFSGVAGEAPSNPSVPVAVSSGPGRGDADSHASMKSLLTSRPEDTTHNRRSRGMVQSSSPIMPTVGPSTASPEEPPGSSLPSDTSDEIMDLLVQSVTKSSPRALAARERKRSRGNRKSLRRTLKSGLGDDLVQALGLSKGPGLEV
growth of yeast on tryptophan, leucine and histidine-free SD medium [1]: did not grow | growth of yeast on tryptophan, leucine and histidine-free SD medium [2]: did not grow | β-galactosidase activity [3]: about 70 units | growth of yeast on tryptophan, leucine and histidine-free SD medium [4]: Growth of the yeast was noted
